These results are taken from patent US6399759B1, “Ant proteases and methods of inhibition” (University of Georgia Research Foundation, Inc., priority 1999, dated 2002).

Experiment in all cases: Inhibition of amidolytic activity by naturally occurring protease inhibitors
What all share (details): 10 minutes incubation at 25° C. in 50 mM Tris-HCl, 100 mM NaCl, pH 7.4

In one experiment the target is T1, Soli C1 (Solenopsis invicta, UniProt Q7SIG2).
T1 construct: Fourth instar larvae were extracted in a 1:10 (weight/volume) ratio of 20 mM Tris-HCl pH 7.4; from tissue; host or cells: whole Solenopsis invicta 4th instar larvae (buffer extract, acetone precipitation, Q Sepharose peak III, Mono Q, Superdex 75)
T1 sequence (Q7SIG2 whole entry): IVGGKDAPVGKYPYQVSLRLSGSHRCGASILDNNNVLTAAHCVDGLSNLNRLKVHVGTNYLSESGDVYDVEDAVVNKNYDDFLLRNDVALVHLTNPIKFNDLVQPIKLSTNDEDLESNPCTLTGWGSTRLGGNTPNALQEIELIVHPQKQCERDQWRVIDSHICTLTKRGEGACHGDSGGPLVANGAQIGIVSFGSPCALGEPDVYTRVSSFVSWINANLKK
Format: biochemical. The method, then: (§1) Enzyme Assay—Generally, the amidolytic activities of each proteinase were measured with the substrates MeOSuc-Ala-Ala-Pro-Val-pNA (SEQ ID NO:8) and N-Suc-Ala-Ala-Pro-Phe-pNA (SEQ ID NO:7) in 0.05 M Tris-HCl and 100 mM NaCl pH 7.4 (assay buffer). Release of the pNA group was assayed by monitoring the optical density of the test solution at […]. Enzyme inhibition assays by protein inhibitors were conducted in the same assay buffer using an inhibitor concentration ranging from 0.02-50 nM with a 10 minute preincubation time and with the final enzyme concentration being 1.0 nM. All kinetic studies with substrates and inhibitors were performed at the optimum pH of the individual proteinases, utilizing the following buffers: 150 mM NaCl, 50 mM Tris-HCl pH 8.0 (E1); 150 mM NaCl, 50 mM CHES pH 9.5 (E2 and C2); and 150 mM NaCl, 50 mM CAPS pH 10.0 (C1).

A further experiment has as its system Soli C2. Format: biochemical, Solenopsis invicta. The method, then:
as §1

For another experiment, the system named is Soli E1. Format: biochemical, Solenopsis invicta. The procedure: as §1
For a further experiment, the system named is Soli E2. Format: biochemical, Solenopsis invicta. The procedure:
as §1

B1: Lima Bean Trypsin Inhibitor: lima bean trypsin inhibitor from Sigma (protein)
chain: SGHHEHSTDXPSXSSKPCCXHCACTKSIPPQCRCTDLRLDSCHSACKSCICTLSIPAQCVCXXIXDFCYEPCKSSHSDDDNNN
modifications: not fully specified
Take B1: the “IC50 Soli C1” value with Soli C1 was “active”. For the same molecule, the “IC50 Soli C2” value with Soli C2 is “active”.

B2: Eglin C: naturally occurring protease inhibitor obtained from Ciba Geigy (protein)
chain: TEFGSELKSFPEVVGKTVDQAREYFTLHYPQYDVYFLPEGSPVTLDLRYNRVRVFYNPGTNVVNHVPHVG
For orientation: IC50 means the concentration that inhibits the measured activity by half. High values mean weaker potency in that assay, low ones greater potency in that assay. As to B2, the IC50 was found to be 1.24 nM with Soli C1, 0.442 nM in the experiment on Soli C2, 3.93 nM with Soli E1 and 1.89 nM in the experiment with Soli E2.

B3: Soy Bean Trypsin Inhibitor I-S: soybean trypsin inhibitor Type I-S from Sigma (protein)
chain: DFVLDNEGNPLENGGTYYILSDITAFGGIRAAPTGNERCPLTVVQSRNELDKGIGTIISSPYRIRFIAEGHPLSLKFDSFAVIMLCVGIPTEWSVVEDLPEGPAVKIGENKDAMDGWFRLERVSDDEFNNYKLVFCPQQAEDDKCGDIGISIDHDDGTRRLVVSKNKPLVVQFQKLDKESL
For the molecule B3, the IC50 with Soli C1 was found to be 37 nM; in the experiment with Soli C2, 1.41 nM; in the experiment with Soli E1, 4.22 nM; in the experiment with Soli E2, 5.58 nM.
